Paper PMC7017353, “Delineating the Molecular Basis of the Calmodulin–bMunc13-2 Interaction by Cross-Linking/Mass Spectrometry—Evidence for a Novel CaM Binding Motif in bMunc13-2” (Cells, 2020)

Experiments:
[1] = target: CaM (bovine brain) (bovine) (UniProt P62157); test: cross-linking; chemical cross-linking (BS3, DSBU 1 mM; s-GMBS in two steps) of CaM (bovine brain, 10 µM) with 10 µM segment-A; 20 mM HEPES, 230 mM NaCl, 0.5 mM TCEP, 7.5% glycerol, pH 7.2, 25 °C; 750 nM and 1 mM Ca2+; SDS-PAGE and LC-MS/MS
[2] = target: CaM (source not told for this experiment) (UniProt P62157); test: native gel or EMSA; native gel electrophoresis of the CaM/segment-A complex (Figure S5)
[3] = target: CaM (source not told for this experiment) (UniProt P62157); test: native MS; 10 µM CaM and segment-A in 300 mM ammonium acetate pH 7.0; residual Ca2+ around 5 µM
Photo-Met labeled CaM [4] = target: Photo-Met labeled CaM (UniProt P0DP23); test: cross-linking; photo-cross-linking of photo-Met-labeled CaM (10 µM) with 10 µM segment-A, -B or -C; 20 mM HEPES, 250 mM NaCl, 0.5 mM TCEP, 7.5% glycerol, pH 7.2, 25 °C; free Ca2+ 75 nM to 1 mM (EGTA system); UV-A 360 nm; SDS-PAGE and LC-MS/MS
Photo-Met labeled CaM [5] = target: Photo-Met labeled CaM (UniProt P0DP23); test: cross-linking; photo-cross-linking of photo-Met-labeled CaM with segment-B, SDS-PAGE analysis (data not shown)
[6] = target: biotinylated photo-Met-labeled CaM (UniProt P0DP23); test: SPR; biotinylated photo-Met-CaM immobilised on streptavidin on a PEG-biotin chip; segment-C and variants injected at 0.1–1 µM in 20 mM HEPES, 230 mM NaCl, 0.5 mM TCEP, pH 7.2; 30 µL/min

In the case of “bMunc13-2 segment-A (aa 367–780) (from UniProt Q62769-2 367-780) (domain or fragment)”, the stoichiometry N (segment-A per CaM) [1] is reported as 1, the stoichiometry N (segment-A per CaM) [2] is reported as 1 and the stoichiometry N (segment-A per CaM) [3] is reported as 1. The stoichiometry N (segment-A per CaM) (Photo-Met labeled CaM [4]) was 1.
Substance “bMunc13-2 segment-B (aa 367–903) (from UniProt Q62769-2 367-903) (domain or fragment)” has a stoichiometry N (segment-B per CaM) (Photo-Met labeled CaM [5]) of 1.
For “bMunc13-2 segment-C (aa 703–742) (peptide)”, the Kd [6] was 159 nM and the stoichiometry N (segment-C per CaM) (Photo-Met labeled CaM [4]) was 1.
